Results on ten molecules are retold here after patent US20160046944, “APTAMER TO IL-17 AND USE THEREOF” (THE UNIVERSITY OF TOKYO, published 2016).

Holding throughout (details): chain copies: 2
The target in data set [1] is T1, IL-17 (Homo sapiens, UniProt Q16552 Q16552:24-155).
T1 sequence: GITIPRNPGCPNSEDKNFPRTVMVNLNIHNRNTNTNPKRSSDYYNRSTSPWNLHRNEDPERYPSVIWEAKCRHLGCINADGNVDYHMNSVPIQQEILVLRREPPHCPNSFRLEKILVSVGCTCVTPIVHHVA
Description: SPR; IL-17 150 nM, aptamer 12.5 or 50 nM. Here is the method: Whether the synthesized aptamers inhibit the binding of IL-17 and IL-17 receptor was evaluated by the surface plasmon resonance method.
For the measurement, BIAcore T100 manufactured by GE Healthcare Bio Sciences was used. […] As an analyte, IL-17 (150 nM) and each aptamer (12.5 or 50 nM) shown by Table 3 were mixed, maintained for 15 min and after that the mixture was flown.
For orientation: SPR reads the build-up and loss of mass on a sensor chip optically.

Data set [2] has as its target T1, IL-17. Description: cell_activity; NIH3T3 IL-6 release. As to the method:
(§1) First, human IL-17 and the aptamer produced in Example 1-2 were pre-incubated at 37° C. for 30 min, and added to NIH3T3 cell (ATCC, CRL1658) together with mouse TNFα (2 ng/mL). Then, after incubation for 24 hr, the culture supernatant was collected, and the production amount of IL-6 was measured by ELISA method described below. The IL-17 inhibitory action of each aptamer was determined from the production amount of IL-6. For comparison with the aptamer of the present invention, a conventionally-known aptamer (aptamer No. 50) against IL-17 was used.
ELISA method for verifying IL-17 inhibitory action of aptamer: A microtiter plate for ELISA was coated with rat anti-mouse IL-6 antibody (BD Biosciences, 2 μg/mL; 100 μL/well) diluted with PBS, and incubated at 4° C. overnight. The next day, the microtiter plate was washed 3 times with PBS/0.05% Tween 20, and applied blocking with PBS/1% BSA (200 μL/well) at room temperature for 2 hr. Then, the plate was washed 3 times with PBS/0.05% Tween 20. Recombinant mouse IL-6 (BD Biosciences; 100 μL/well) serially diluted with PBS/1% BSA/0.05% Tween 20 or culture supernatants (100 μL/well) were added to the plate. After incubation at room temperature for 2 hr, the plate was washed 3 times with PBS/0.05% Tween 20. Then, 100 μL/well of biotin conjugated rat anti-mouse IL-6 antibody (BD Biosciences) was added to the plate at final dilution of 1/500, and the mixture was reacted at room temperature for 1 hr. After washing 3 times with PBS/0.05% Tween 20, 100 μL/well of alkaline phosphatase conjugated streptavidin was added at final dilution of 1/1000. After 30 min at room temperature, the plate was again washed 4 times with PBS/0.05% Tween 20, and a substrate (1-Step PNPP; Thermo Fisher Scientific Inc; 100 μL/well) was added. After 15 min, aqueous sodium hydroxide solution (2N: 50 μL/well) was added to stop the reaction, and the plate was read on a microtiter reader (Bio-Rad) by using a 405 nm filter.

For data set [3], the target named is T2, IL-17 (IL-17A) (Homo sapiens, UniProt Q16552 Q16552:24-155).
T2 sequence: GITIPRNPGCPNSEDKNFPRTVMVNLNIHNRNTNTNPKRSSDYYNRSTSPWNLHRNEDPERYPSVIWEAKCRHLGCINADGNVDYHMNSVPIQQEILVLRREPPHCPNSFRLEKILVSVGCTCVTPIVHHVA
The data set can be described thus: cell_activity; IL-6 release, NIH3T3, 37 C. Here is the method: First, human IL-17 and the aptamer produced in Example 1-1 were pre-incubated at 37° C. for 30 min, and added to NIH3T3 cell (ATCC, CRL1658) together with mouse TNFα (2 ng/mL). Then, after incubation for 24 hr, the culture supernatant was collected, and the amount of IL-6 was measured by BD Cytometric Bead Array (BD Biosciences). The IL-17 inhibitory action of each aptamer was determined from the amount of IL-6. For comparison with the aptamer of the present invention, a conventionally-known aptamer (aptamer No. 50) against IL-17 was used.

Data set [4] deals with T2, IL-17 (IL-17A). Description: cell_activity; IL-6 release (ELISA), NIH3T3. As to the method: as §1
(§2) ELISA method for verifying IL-17 inhibitory action of aptamer: A microtiter plate for ELISA was coated with rat anti-mouse IL-6 antibody (BD Biosciences, 2 μg/mL; 100 μL/well) diluted with PBS, and incubated at 4° C. overnight. The next day, the microtiter plate was washed 3 times with PBS/0.05% Tween 20, and applied blocking with PBS/1% BSA (200 μL/well) at room temperature for 2 hr. Then, the plate was washed 3 times with PBS/0.05% Tween 20. Recombinant mouse IL-6 (BD Biosciences; 100 μL/well) serially diluted with PBS/1% BSA/0.05% Tween 20 or culture supernatants (100 μL/well) were added to the plate. […] After 15 min, aqueous sodium hydroxide solution (2N: 50 μL/well) was added to stop the reaction, and the plate was read on a microtiter reader (Bio-Rad) by using a 405 nm filter.

Data set [5] addresses T1, IL-17. The data set can be described thus: cell_activity; NIH3T3 IL-6 release, human IL-17 + mouse TNFa, 37 C; 8.63 nM in Table 6. Here is the method: as §1, §2

Broadly, the IC50 is the concentration needed to halve the response being measured.

B1: aptamer No. 55 (mixed)
mixed: GGGUAGCCGGAGGAGTCAGTGAUCGGUACCC
modifications: 2'-OMe (M), 2'-F (F), PS (S) as marked; uppercase DNA [2'-OMe: 1,2,3,4,7,8,10,13,14,23,24,25,26,28; 2'-F: 11,17,18,27; PS: 6]
On to B1, for which the binding signal in the data set with IL-17 [1] is 19 % IL-17/IL-17R binding remaining. For the same molecule, half-maximal inhibition in the data set with IL-17 [2] (IC50) required 0.11 nM.

B2: aptamer No. 57 (mixed)
mixed: GGGUAGCCGGAGGAGTCAGTAAUCGGUACCC
modifications: 2'-OMe (M), 2'-F (F), PS (S) as marked; uppercase DNA [2'-OMe: 1,2,3,4,7,8,10,13,14,19,21,22,23,24,25,26,28; 2'-F: 11,17,18,27; PS: 6,15]
Regarding B2, the IC50 with IL-17 [2] is 2.36 nM.

B3: aptamer No. 26 (mixed)
mixed: GGGUAGCCGGAGGAGTCAGTAAUCGGTACCC
modifications: (M)=2'-OMe,(F)=2'-F,(S)=PS, lowercase RNA, uppercase DNA: g(M)g(M)g(M)u(M)Ag(S)c(M)c(M)Gg(M)Agg(M)a(M)gTc(F)agTaau(M)c(M)g(M)g(M)Ta(M)c(M)c(M)c(M)
B3: the half-inhibitory concentration (IC50) with IL-17 (IL-17A) [3] is 0.78 nM.

B4: aptamer No. 71 (mixed)
RNA: GGGUAGCCGGAGGAGUCAGUAAUCGGUACCC
modifications: 2'-OMe (M), 2'-F (F), PS (S) as marked; uppercase DNA [2'-OMe: 1-5,7,8,10,13,14,17,21-26,28-31; 2'-F: 11,16,18,20,27; PS: 6,15,19]
As to B4, the 50% inhibitory concentration (IC50) with IL-17 [2] was determined as 5.54 nM.

B5: aptamer No. 74 (mixed)
mixed: GGGUAGCCGGAGGAGTCAGTAAUCGGUACCC
modifications: 2'-OMe (M), 2'-F (F) as marked; uppercase DNA [2'-OMe: 1-5,7,8,10,13,14,21-26,28-31; 2'-F: 11,17,18,27]
With B5, in the data set with IL-17 [2], 1.06 nM corresponded to half-maximal inhibition (IC50).

B6: aptamer No. 88 (mixed)
RNA: GGGUAGCCGGAGGAGUCAGUGAUCGGUACCC
modifications: 2'-OMe (M), 2'-F (F), PS (S) as marked; uppercase DNA [2'-OMe: 1-5,7,8,10,11,13,14,17,22-26,28-31; 2'-F: 16,18,20,27; PS: 6,15,19; DNA: 9]
With B6, half-maximal inhibition in the data set with IL-17 [2] (IC50) was put at 2.88 nM.

B7: aptamer No. 61 (mixed)
mixed: GGGUAGCCGGAGGAGTCAGTAAUCGGUACCC
modifications: 2'-OMe (M), 2'-F (F), PS (S) as marked; uppercase DNA [2'-OMe: 1,2,3,4,7,8,10,11,13,14,19,21,22,23,24,25,26,28; 2'-F: 17,18,27; PS: 6,15]
Turning to B7, in the data set with IL-17 [2], it took 3.41 nM to reach half-maximal inhibition (IC50).

B8: aptamer No. 52 (mixed)
mixed: GGGUAGCCGGAGGAGTCAGTAAUCGGUACCC
modifications: g(M)g(M)g(M)u(M)Ag(S)c(M)c(M)Gg(M)a(F)gg(M)a(M)g(S)Tc(F)a(F)gTa(M)a(M)u(M)c(M)g(M)g(M)u(F)a(M)CCC
In the data set with IL-17 (IL-17A) [4], B8 yielded a concentration for half-maximal inhibition (IC50) of 1.11 nM.

B9: aptamer No. 67 (mixed)
mixed: GGGUAGCCGGAGGAGTCAGTAAUCGGUACCC
modifications: 2'-OMe (M), 2'-F (F), PS (S) as marked; uppercase DNA [2'-OMe: 1-5,7,8,10,13,14,17,21-31; 2'-F: 11,18; PS: 6,15,19]
For B9, in the data set with IL-17 [2], 5.95 nM corresponded to half-maximal inhibition (IC50).

B10: aptamer No. 50 (ssRNA)
RNA: GGUCUAGCCGGAGGAGUCAGUAAUCGGUAGACC
modifications: 2'-F all U and C except none: ggu(F)c(F)u(F)agc(F)c(F)ggaggagu(F)c(F)agu(F)aau(F)c(F)ggu(F)agac(F)c(F)
Take B10: the IC50 with IL-17 [5] is 7.36 nM.
